Values quoted from earlier work in article PMC9442343.

Target: IL-18 (Homo sapiens) (UniProt Q14116)
Sequence (Q14116 37-193): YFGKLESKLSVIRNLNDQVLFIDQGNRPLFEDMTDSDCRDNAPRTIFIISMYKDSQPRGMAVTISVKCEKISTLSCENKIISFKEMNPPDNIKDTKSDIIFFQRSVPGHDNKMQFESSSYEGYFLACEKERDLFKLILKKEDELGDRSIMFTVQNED

IL-18BP, sequence (O95998 31-194): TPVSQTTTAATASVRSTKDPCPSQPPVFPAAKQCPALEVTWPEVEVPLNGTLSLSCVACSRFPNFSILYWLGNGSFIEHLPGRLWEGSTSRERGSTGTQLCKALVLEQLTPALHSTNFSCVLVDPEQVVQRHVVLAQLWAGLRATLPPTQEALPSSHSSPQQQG

IL-18BP (from UniProt O95998)
Kd: 400 pM
